{"source": "patent US9567641B2", "about": "“Combination therapy for the treatment of cancer using an anti-C-met antibody” (SAMSUNG ELECTRONICS CO., LTD., priority 2013, dated 2017)", "molecules": {"B1": {"name": "L3-1Y/IgG2: anti-c-Met antibody: huAbF46-H4-A1 heavy chain variable region, human IgG2 hinge and constant region, kappa light chain with H36Y (antibody)", "heavy": "EVQLVESGGGLVQPGGSLRLSCAASGFTFTDYYMSWVRQAPGKGLEWLGFIRNKANGYTTEYSASVKGRFTISRDNSKNTLYLQMNSLRAEDTAVYYCARDNWFAYWGQGTLVTVSSASTKGPSVFPLAPCSRSTSESTAALGCLVKDYFPEPVTVSWNSGALTSGVHTFPAVLQSSGLYSLSSVVTVPSSNFGTQTYTCNVDHKPSNTKVDKTVERKCCVECPPCPAPPVAGPSVFLFPPKPKDTLMISRTPEVTCVVVDVSHEDPEVQFNWYVDGVEVHNAKTKPREEQFNSTFRVVSVLTVVHQDWLNGKEYKCKVSNKGLPAPIEKTISKTKGQPREPQVYTLPPSREEMTKNQVSLTCLVKGFYPSDIAVEWESNGQPENNYKTTPPMLDSDGSFFLYSKLTVDKSRWQQGNVFSCSVMHEALHNHYTQKSLSLSPGK", "light": "DIQMTQSPSSLSASVGDRVTITCKSSQSLLASGNQNNYLAWYQQKPGKAPKMLIIWASTRVSGVPSRFSGSGSGTDFTLTISSLQPEDFATYYCQQSYSRPYTFGQGTKVEIKRTVAAPSVFIFPPSDEQLKSGTASVVCLLNNFYPREAKVQWKVDNALQSGNSQESVTEQDSKDSTYSLSSTLTLSKADYEKHKVYACEVTHQGLSSPVTKSFNRGEC"}}, "format_in_all_cases": "cell-based", "key": {"[1]": {"test_system": "EBC1 lung cancer cell line", "assay": "Cell viability, CellTiter Blue, combination with L3-1Y/IgG2 antibody", "conditions": "for concentration at which the L3-1Y/IgG2 antibody showed the maximized efficacy: 5 days", "description": "The efficacy of the combination administration of RAF1 siRNA and L3-1Y/IgG2 antibody was examined in lung cancer cell line on which the anti-c-Met antibody has an effect. For this, EBC1 (JCRB, JCRB0820) cells were used. As a control group, All Negative control siRNA (Qiagen, cat. no. 1027281) was used, and as a target siRNA, a mixture of two kinds of siRNAs (see Table 7) that had effects during the screening was used. Transfection was carried out by the same procedures as Example 3.1 and after 24 hours, the cultured cells were treated with L3-1Y/IgG2 antibody at 0 ug/ml, 0.016 ug/ml, 0.08 ug/ml, 0.4 ug/ml, or 2 ug/ml. After 5 days of treatment, for cell number counting, 20 ul of a diluting solution of CellTiter Blue (Promega, G8081) and HBSS at 1:1 was added to each well, which was incubated at 37° C. for 4 hours. Then, the number of cells was counted via fluorescence signals (560/590 nm), which were measured using Envision 2104 Multi-label Reader (Perkin Elmer)."}, "[2]": {"test_system": "MKN45 gastric cancer cell line with acquired resistance against L3-1Y/IgG2 antibody", "assay": "Cell viability, CellTiter Glo, resistance-acquired cell line", "description": "To see whether the treatment RAF1 siRNA can overcome resistance acquired due to the repetitive treatment of an antibody, tests were carried out using MKN45 gastric cancer cell line which had been treated by L3-1Y/IgG2 antibody for 3 months or longer and acquired resistance against it. The resistance-acquired MKN45 gastric cancer cell line was prepared as follows: MKN45 cells (JCRB, JCRB0254) were treated with L3-1Y/IgG2 antibody in amounts being increased over 3 months or longer. The amount of L3-1Y/IgG2 antibody to be treated started from its initial treatment concentration of 1 ug/ml and was increased up to 10 ug/ml until resistance occurred. To confirm the acquisition of L3-1Y/IgG2 antibody resistance, the resistance-acquired clones were treated or not treated with L3-1Y/IgG2 antibody and then incubated, followed by CTG assays.\nAs a control group, All Negative control siRNA (Qiagen, cat. no. 1027281) was used, and as a target siRNA, a mixture of two kinds of siRNAs (see Table 7) that had effects during the screening was used. […]\n(§1) 5000 cells of MKN45 cells which have acquired resistance against L3-1Y/IgG2 antibody were seeded onto a 96-well plate, and 24 hours after, the plate was treated with L3-1Y/IgG2 antibody and an ITGB3 inhibitor, cilengitide (Merck KGaA, EMD 121974). 72 hours later after the treatment, a change in the number of cells was measured using CellTiter Glo assay. The MKN45 cells which have acquired resistance against L3-1Y/IgG2 antibody were prepared referring to Example 4.3. Cilengitide was treated at a fixed concentration of 10 uM, and the L3-1Y/IgG2 antibody was treated by ⅕ dilution each time starting from 2 ug/ml. For comparison, the same test was conducted using L3-1Y/IgG2 antibody alone.\nas §1, with “AKT” for “ITGB3”, “MK-2206” for “cilengitide”, “& Co Inc).” for “KGaA, EMD 121974).”, “MK-2206” for “Cilengitide”, “5” for “10”\nTo verify whether or not the resistance acquired by repetitive administration of anti-c-Met antibody can be overcome by BCL2L1 inhibition, L3-1Y/IgG2 antibody resistance acquired MKN45 cells, where the resistance against L3-1Y/IgG2 antibody is acquired by treating MKN45 gastric cancer cells (JCRB, JCRB0254) with the L3-1Y/IgG2 antibody for at least 3 months, were used. The L3-1Y/IgG2 antibody resistance acquired MKN45 gastric cancer cells were prepared referring to Example 4.3. […]"}, "[3]": {"test_system": "L3-1Y/IgG2 antibody resistance acquired EBC1 lung cancer cells", "assay": "Cell viability, CellTiter Glo, resistance-acquired cell line", "conditions": "L3-1Y/IgG2 antibody alone", "description": "To verify whether or not the resistance acquired by repetitive administration of anti-c-Met antibody can be overcome by BCL2L1 inhibition, L3-1Y/IgG2 antibody resistance acquired EBC1 cells, where the resistance against L3-1Y/IgG2 antibody is acquired by treating EBC1 lung cancer cells (JCRB, JCRB0820) with the L3-1Y/IgG2 antibody for at least 3 months, were used. The L3-1Y/IgG2 antibody resistance acquired EBC1 lung cancer cells were prepared referring to Example 4.3.\n5000 cells of the L3-1Y/IgG2 antibody resistance acquired EBC1 cells were seeded onto a 96-well plate and 24 hours after, the plate was treated with a BCL2 family inhibitor, ABT-263 (Abbott Laboratories) and 72 hours later after the antibody treatment, a change in the number of cells was measured using CellTiter Glo assay. ABT-263 was treated at a fixed concentration of 0.5 uM, and the L3-1Y/IgG2 antibody was treated by ⅕ dilution each time starting from 2 ug/ml."}}}
{"molecule": "B1", "values": [{"measurement": "concentration at which the L3-1Y/IgG2 antibody showed the maximized efficacy", "setting": "[1]; co-treated with RAF1 siRNA", "value": 0.016, "unit": "µg/mL"}, {"measurement": "decrease of the concentration of maximized efficacy by RAF1 siRNA co-treatment", "setting": "[1]; with versus without RAF1 siRNA", "value": "⅕"}, {"measurement": "concentration at which the L3-1Y/IgG2 antibody showed the maximized efficacy", "setting": "[1]; without RAF1 siRNA (negative control siRNA)", "value": 0.08, "unit": "µg/mL"}, {"measurement": "growth inhibitory effect (cell viability)", "setting": "[2]; L3-1Y/IgG2 antibody alone (1/5 dilutions from 2 ug/ml), 72 h", "value": "did not occur"}, {"measurement": "cancer cell growth inhibitory efficacy (cell viability)", "setting": "[2]; L3-1Y/IgG2 antibody alone (negative control siRNA)", "value": "did not occur"}, {"measurement": "cancer cell growth inhibitory effect (cell viability)", "setting": "[3]", "value": "did not occur"}]}
